Test results as given in patent publication US20240360242A1 (KISOJI BIOTECHNOLOGY, published 2024).
Changes are numbered by the printed parent chain.

T1: recombinant human EpCAM (human, UniProt P16422 24-265)
T1 construct: also called rhEpCAM
T1 sequence (looked up): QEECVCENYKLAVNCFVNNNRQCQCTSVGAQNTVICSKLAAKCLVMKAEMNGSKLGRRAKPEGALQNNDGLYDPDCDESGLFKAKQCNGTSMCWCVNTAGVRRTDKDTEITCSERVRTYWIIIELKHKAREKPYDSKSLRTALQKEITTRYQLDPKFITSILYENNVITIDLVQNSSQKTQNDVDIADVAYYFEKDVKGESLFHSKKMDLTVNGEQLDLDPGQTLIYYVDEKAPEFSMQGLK

T2: recombinant human IGFBP-1 (human, UniProt P08833 26-259)
T2 construct: also called rhIGFB-1
T2 sequence (looked up): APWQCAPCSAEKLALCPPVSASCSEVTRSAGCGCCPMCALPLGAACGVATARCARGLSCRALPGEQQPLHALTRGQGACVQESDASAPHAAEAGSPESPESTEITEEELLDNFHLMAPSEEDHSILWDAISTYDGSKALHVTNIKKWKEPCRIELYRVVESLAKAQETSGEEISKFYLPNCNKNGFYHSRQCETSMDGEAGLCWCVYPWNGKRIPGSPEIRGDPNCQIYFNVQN

T3: HEK-TROP2 Δ27-104 (human, UniProt P09758)
T3 sequence (membrane protein on transfected HEK cells, looked up): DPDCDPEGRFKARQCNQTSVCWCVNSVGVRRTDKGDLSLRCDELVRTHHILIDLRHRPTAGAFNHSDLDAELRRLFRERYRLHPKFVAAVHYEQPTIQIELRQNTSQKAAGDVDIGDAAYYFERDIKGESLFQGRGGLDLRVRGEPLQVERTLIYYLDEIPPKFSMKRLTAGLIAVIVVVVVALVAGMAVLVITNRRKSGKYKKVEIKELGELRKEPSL

T4: HEK-TROP2 Δ27-85 (human, UniProt P09758)
T4 construct: deletion of residues 27-85, transiently expressed on HEK cells
T4 sequence (membrane protein on transfected HEK cells, looked up): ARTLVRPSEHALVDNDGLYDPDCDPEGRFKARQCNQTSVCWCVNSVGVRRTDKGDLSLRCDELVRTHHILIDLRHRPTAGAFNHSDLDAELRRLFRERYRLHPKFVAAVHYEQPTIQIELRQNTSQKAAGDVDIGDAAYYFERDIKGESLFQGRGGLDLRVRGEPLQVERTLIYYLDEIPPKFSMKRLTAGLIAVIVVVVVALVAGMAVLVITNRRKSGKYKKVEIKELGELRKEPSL

T5: recombinant cynomolgus/Rhesus TROP2 full-length extracellular domain (cynomolgus/Rhesus, UniProt P09758 27-274 (human entry))
T5 construct: also called cynomolgus TROP2
T5 chain: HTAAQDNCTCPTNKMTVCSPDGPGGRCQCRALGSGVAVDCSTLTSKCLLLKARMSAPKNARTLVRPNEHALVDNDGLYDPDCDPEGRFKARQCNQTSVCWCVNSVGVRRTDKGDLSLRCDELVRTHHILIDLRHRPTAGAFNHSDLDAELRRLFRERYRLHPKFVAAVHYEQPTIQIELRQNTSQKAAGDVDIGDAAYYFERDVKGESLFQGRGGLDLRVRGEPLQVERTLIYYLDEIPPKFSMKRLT

T6: recombinant human TROP2 extracellular domain (aa 1-274) comprising His tag (human, UniProt P09758 27-274)
T6 construct: Used here for all assays on recombinant human TROP2 (ELISA, immunoblot, SPR, crystal), although only some of them name the catalogue number; also called human recombinant TROP2; recombinant human TROP2 protein; not shown: His tag
T6 sequence: T5 chain with V36M, N67S, V204I

B1: KD001 (antibody, human IgG1, V domains shown)
VH: QVQLQESGGGMVHPGGSLRLSCAASGFTFSGSDMSWVRQAPGKGPEWVSYITSGGTTYYPDSVKGRFTISRDNAKNTLYLQMNSLTPDDTALYRCAKARLTDSHYVEDAWGQGTQVTVSS
notes: also called anti-TROP2 sdAb KD001
B2: KD005 (antibody, human IgG1, V domains shown)
VH: B1 VH with M11L, H13E, P14A, T86K, A98S
notes: also called anti-TROP2 sdAb KD005
B3: KD004 (antibody, human IgG1, V domains shown)
VH: B1 VH with M11L, H13Q, G16R, S53G, G54S, I69T, T77M, T86K
notes: also called anti-TROP2 sdAb KD004
B4: KD002 (antibody, human IgG1, V domains shown)
VH: QVQLQESGGGMVQVGGSLRLSCAASGFPFSSADMSWVRQAPGKGPEWVSYINADGSKTYYPDSVKGRFTISRDNAKNTLYLLMNNLKPEDTALYRCARAKLTDTHYVEDYWGQGTQVTVSS
notes: also called anti-TROP2 sdAb KD002
B5: KD003 (antibody, human IgG1, V domains shown)
VH: B4 VH with V14P, P28T, S31N, A32Y, D54G, K57N, Y59D, T78M
notes: also called anti-TROP2 sdAb KD003
B6: KD007 (antibody, human IgG1, V domains shown)
VH: QVQLQESGGGLVQPGGSLRLSCAASGFAFSFYAMAWYRQAPGKQRDMVATITAYGNTNYADSVKGRFTTSRDNAKNTVYLQMNSLKPEDTAVYVCNANLPSASHNYWGQGTQVTVSS
notes: also called anti-TROP2 sdAb KD007

target: T1, recombinant human EpCAM; test: ELISA on coated recombinant protein, 200 nM antibody, RLU

binding result	Binder
no binding (tested: 200 nM)	B1
no binding (tested: 200 nM)	B2
no binding (tested: 200 nM)	B3
no binding (tested: 200 nM)	B4
no binding (tested: 200 nM)	B5

target: T7, BSA (bovine, UniProt P02769); test: as above
T7 construct: also called bovine serum albumin
T7 sequence (P02769 25-607 limits assumed): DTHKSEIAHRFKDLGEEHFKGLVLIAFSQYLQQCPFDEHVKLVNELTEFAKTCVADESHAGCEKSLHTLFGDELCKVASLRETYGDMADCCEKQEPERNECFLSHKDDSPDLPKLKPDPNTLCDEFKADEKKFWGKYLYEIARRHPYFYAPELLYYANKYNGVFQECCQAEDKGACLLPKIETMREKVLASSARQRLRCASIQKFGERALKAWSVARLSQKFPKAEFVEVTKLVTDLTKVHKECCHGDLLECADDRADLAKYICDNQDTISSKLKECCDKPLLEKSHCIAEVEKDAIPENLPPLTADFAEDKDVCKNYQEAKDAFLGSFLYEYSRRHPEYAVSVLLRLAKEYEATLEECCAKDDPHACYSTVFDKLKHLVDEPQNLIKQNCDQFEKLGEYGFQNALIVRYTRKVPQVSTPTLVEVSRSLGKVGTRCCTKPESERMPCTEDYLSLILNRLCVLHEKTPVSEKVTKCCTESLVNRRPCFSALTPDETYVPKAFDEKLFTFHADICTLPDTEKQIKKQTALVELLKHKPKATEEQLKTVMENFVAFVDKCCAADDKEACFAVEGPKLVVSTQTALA

binding result	Binder
no binding (tested: 200 nM)	B1
no binding (tested: 200 nM)	B2
no binding (tested: 200 nM)	B3
no binding (tested: 200 nM)	B4
no binding (tested: 200 nM)	B5

target: T2, recombinant human IGFBP-1; test: as above

binding result	Binder
no binding (tested: 200 nM)	B1
no binding (tested: 200 nM)	B2
no binding (tested: 200 nM)	B3
no binding (tested: 200 nM)	B4
no binding (tested: 200 nM)	B5

target: T3, HEK-TROP2 Δ27-104; test: flow cytometry, 100 nM antibody, transiently transfected HEK cells, APC anti-human Fc
Protocol: (§1) To determine the effect of TROP2 truncations on the binding ability of anti-TROP2 sdAbs, the HEK parental cells were transiently transfected with human TROP2 mutants by lipofectamine. 24 hours after transfection, cells were collected and stained with anti-TROP2 antibodies (FIG. 13A and FIG. 13B). In brief, 1×10⁵ cells were incubated with an Fc receptor blocking antibody (1/100 dilution) for 10 minutes at room temperature. Anti-TROP2 antibodies were diluted in FACS staining buffer to 100 nM and added and incubated with cells for 30 minutes on ice. After washing three times with FACS staining buffer, APC-conjugated secondary antibodies recognizing the human Fc region (Biolegend, Cat #410712) were mixed with cells. After staining for 30 minutes, cells were washed three times, followed by resuspension into 100 μL of 7-Amino-Actinomycin D (7-AAD) solution (BD Biosciences, Cat #559925).

binding result	Binder
no binding (tested: 100 nM)	B1
no binding (tested: 100 nM)	B2
no binding (tested: 100 nM)	B3
no binding (tested: 100 nM)	B4
no binding (tested: 100 nM)	B5
no binding (tested: 100 nM)	B6

target: T4, HEK-TROP2 Δ27-85; test: as above
Protocol: as §1

binding result	Binder
no binding (tested: 100 nM)	B1
no binding (tested: 100 nM)	B2
no binding (tested: 100 nM)	B3
no binding (tested: 100 nM)	B4
no binding (tested: 100 nM)	B5
no binding (tested: 100 nM)	B6

Target: T5, recombinant cynomolgus/Rhesus TROP2 …
Test: SPR

Kd [nM]	Binder
0.0257	B1
0.0597	B2
0.0358	B3
0.0811	B4
0.169	B5

target: T6, recombinant human TROP2 extracellular …; test: SPR

Kd [nM]	Binder
0.0826	B1
0.0268	B2
0.0294	B3
0.0432	B4
0.0893	B5
